From patent US20140087995A1 (published 2014)
Numbering of substitutions follows the chain as printed. Read-outs that look alike come from different tables or passages of the source. Values belong to the binder of their own block, whether it stands above or below them. Numbered stars: 1 amine (or outer) side, 2 acyl side, 3 side chain; on linkers, the order of the positions; unused ones are H or OH. Bridge positions count the residues as written; N and C are the ends. Side chains are listed from the residue outwards. Ends that are not written are not given here. * marks the point of attachment. C20 diacid = O=C(O)CCCCCCCCCCCCCCCCCCC(=O)*; γGlu = O=C(O)[C@H](CCC(=O)[*:2])N[*:1]

Tests used:
Assay in all cases: cell-based or functional assay
[1] = target: T1, human amylin receptor (amylin 3(a) receptor: human calcitonin receptor with RAMP-3) (human, UniProt P30988 25-474; O60896 24-148)
T1 sequence (looked up) 1: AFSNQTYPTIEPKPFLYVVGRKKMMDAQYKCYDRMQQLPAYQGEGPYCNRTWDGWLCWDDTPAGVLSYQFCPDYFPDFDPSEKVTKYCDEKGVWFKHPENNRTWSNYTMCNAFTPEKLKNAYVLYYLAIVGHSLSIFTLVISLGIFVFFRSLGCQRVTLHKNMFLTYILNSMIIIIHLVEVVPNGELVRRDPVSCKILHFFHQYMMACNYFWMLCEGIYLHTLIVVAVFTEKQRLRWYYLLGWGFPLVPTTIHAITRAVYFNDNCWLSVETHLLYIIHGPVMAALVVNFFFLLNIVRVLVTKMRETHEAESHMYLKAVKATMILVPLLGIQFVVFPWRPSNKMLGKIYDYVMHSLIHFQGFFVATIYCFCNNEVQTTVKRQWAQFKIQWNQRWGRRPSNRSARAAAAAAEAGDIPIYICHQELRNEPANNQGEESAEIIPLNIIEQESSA
T1 sequence (looked up) 2: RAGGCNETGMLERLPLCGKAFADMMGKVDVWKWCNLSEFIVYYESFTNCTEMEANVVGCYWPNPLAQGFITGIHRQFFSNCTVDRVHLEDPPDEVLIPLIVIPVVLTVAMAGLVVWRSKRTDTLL

[2] = target: T2, human calcitonin receptor (human, UniProt P30988 25-474)
T2 sequence (looked up): T1 sequence (looked up) 1

[3] = target: T3, human amylin receptor (amylin 3(a) receptor: human calcitonin receptor plus RAMP-3) (human, UniProt P30988 25-474; O60896 24-148, limits assumed)
T3 sequence (looked up) 1: T1 sequence (looked up) 1
T3 sequence (looked up) 2: T1 sequence (looked up) 2

[4] = target: T4, human calcitonin receptor (human, UniProt P30988 25-474); remark: listed apart in the source
T4 sequence (looked up): T1 sequence (looked up) 1

B1: N^α1 N^α1-[(4S)-4-carboxy-4-[[(4S)-4-carboxy-4-(19-carboxynonadecanoylamino)butanoyl]amino]butanoyl]-[Glu14,Arg17,Pro21,Pro27]-h-amylin (peptide)
peptide: {C20 diacid-γGlu-γGlu}-KCNTATCATQRLAEFLRHSSPNFGAIPSSTNVGSNTY-NH2
modifications: disulfide 2-7
SMILES: CC[C@H](C)[C@H](NC(=O)[C@H](C)NC(=O)CNC(=O)[C@H](Cc1ccccc1)NC(=O)[C@H](CC(N)=O)NC(=O)[C@@H]1CCCN1C(=O)[C@H](CO)NC(=O)[C@H](CO)NC(=O)[C@H](Cc1c[nH]cn1)NC(=O)[C@H](CCCNC(=N)N)NC(=O)[C@H](CC(C)C)NC(=O)[C@H](Cc1ccccc1)NC(=O)[C@H](CCC(=O)O)NC(=O)[C@H](C)NC(=O)[C@H](CC(C)C)NC(=O)[C@H](CCCNC(=N)N)NC(=O)[C@H](CCC(N)=O)NC(=O)[C@@H](NC(=O)[C@H](C)NC(=O)[C@@H]1CSSC[C@H](NC(=O)[C@H](CCCCN)NC(=O)CC[C@H](NC(=O)CC[C@H](NC(=O)CCCCCCCCCCCCCCCCCCC(=O)O)C(=O)O)C(=O)O)C(=O)N[C@@H](CC(N)=O)C(=O)N[C@@H]([C@@H](C)O)C(=O)N[C@@H](C)C(=O)N[C@@H]([C@@H](C)O)C(=O)N1)[C@@H](C)O)C(=O)N1CCC[C@H]1C(=O)N[C@@H](CO)C(=O)N[C@@H](CO)C(=O)N[C@H](C(=O)N[C@@H](CC(N)=O)C(=O)N[C@H](C(=O)NCC(=O)N[C@@H](CO)C(=O)N[C@@H](CC(N)=O)C(=O)N[C@H](C(=O)N[C@@H](Cc1ccc(O)cc1)C(N)=O)[C@@H](C)O)C(C)C)[C@@H](C)O
notes: also called compound 15
- hAmylin-R funct. EC50 [1]: 0.386 nM
- Ratio hCT/hAmylin funct. [2]: 8.9
- hCTR funct. EC50 [2]: 3.43 nM

B3: N^α1-[2-[2-[2-[[2-[2-[2-[[(4S)-4-carboxy-4-(19-carboxynonadecanoylamino)butanoyl]amino]ethoxy]ethoxy]acetyl]amino]ethoxy]ethoxy]acetyl]-[Glu14,Arg17,Pro21,Pro27 … (peptide)
peptide: KCNTATCATQRLAEFLRHSSPNFGAIPSSTNVGSNTY
modifications: C20 diacid-gGlu-2xOEG on the alpha amino group of the N-terminal residue; disulfide bridge Cys2-Cys7; C-terminal amide
notes: also called compound 19
- hAmylin-R funct. EC50 [1]: 0.307 nM
- Ratio hCT/hAmylin funct. [2]: 17.4
- hCTR funct. EC50 [2]: 5.32 nM

B4: N^α1-[(4S)-4-carboxy-4-(19-carboxynonadecanoylamino)butanoyl]-[Arg17,Pro21,Pro27,Glu35]-h-amylin (peptide)
peptide: B3 peptide with E14N, N35E
modifications: C20 diacid-gGlu on the alpha amino group of the N-terminal residue; Cys2-Cys7 disulfide and C-terminal amide as in human amylin
notes: also called compound 23
- hAmylin-R funct. EC50 [3]: 0.34 nM
- Ratio hCT/hAmylin funct. (hCTR EC50 against hAmylin-R EC50) [4]: 8.9
- hCTR funct. EC50 [4]: 3.02 nM

B7: N^ε1-[(4S)--4-carboxy-4-(19-carboxynonadecanoylamino)butanoyl]-[Glu14,Arg17,Pro21,Pro27,Pro37]-h-amylin (peptide)
peptide: K([γGlu-C20 diacid])CNTATCATQRLAEFLRHSSPNFGAIPSSTNVGSNTP-NH2
modifications: disulfide 2-7; N-terminus assumed
SMILES: CC[C@H](C)[C@H](NC(=O)[C@H](C)NC(=O)CNC(=O)[C@H](Cc1ccccc1)NC(=O)[C@H](CC(N)=O)NC(=O)[C@@H]1CCCN1C(=O)[C@H](CO)NC(=O)[C@H](CO)NC(=O)[C@H](Cc1c[nH]cn1)NC(=O)[C@H](CCCNC(=N)N)NC(=O)[C@H](CC(C)C)NC(=O)[C@H](Cc1ccccc1)NC(=O)[C@H](CCC(=O)O)NC(=O)[C@H](C)NC(=O)[C@H](CC(C)C)NC(=O)[C@H](CCCNC(=N)N)NC(=O)[C@H](CCC(N)=O)NC(=O)[C@@H](NC(=O)[C@H](C)NC(=O)[C@@H]1CSSC[C@H](NC(=O)[C@@H](N)CCCCNC(=O)CC[C@H](NC(=O)CCCCCCCCCCCCCCCCCCC(=O)O)C(=O)O)C(=O)N[C@@H](CC(N)=O)C(=O)N[C@@H]([C@@H](C)O)C(=O)N[C@@H](C)C(=O)N[C@@H]([C@@H](C)O)C(=O)N1)[C@@H](C)O)C(=O)N1CCC[C@H]1C(=O)N[C@@H](CO)C(=O)N[C@@H](CO)C(=O)N[C@H](C(=O)N[C@@H](CC(N)=O)C(=O)N[C@H](C(=O)NCC(=O)N[C@@H](CO)C(=O)N[C@@H](CC(N)=O)C(=O)N[C@H](C(=O)N1CCC[C@H]1C(N)=O)[C@@H](C)O)C(C)C)[C@@H](C)O
notes: also called compound 12
- hAmylin-R funct. EC50 [1]: 0.101 nM
- Ratio hCT/hAmylin funct. [2]: 1.8
- hCTR funct. EC50 [2]: 0.185 nM

B9: N^ε1-[(4S)-4-carboxy-4-[[(4S)-4-carboxy-4-(19-carboxynonadecanoylamino)butanoyl]amino]butanoyl]-[Glu14,Arg17,Pro21,Pro27,Pro37]-h-amylin (peptide)
peptide: K([γGlu-γGlu-C20 diacid])CNTATCATQRLAEFLRHSSPNFGAIPSSTNVGSNTP-NH2
modifications: disulfide 2-7; N-terminus assumed
SMILES: CC[C@H](C)[C@H](NC(=O)[C@H](C)NC(=O)CNC(=O)[C@H](Cc1ccccc1)NC(=O)[C@H](CC(N)=O)NC(=O)[C@@H]1CCCN1C(=O)[C@H](CO)NC(=O)[C@H](CO)NC(=O)[C@H](Cc1c[nH]cn1)NC(=O)[C@H](CCCNC(=N)N)NC(=O)[C@H](CC(C)C)NC(=O)[C@H](Cc1ccccc1)NC(=O)[C@H](CCC(=O)O)NC(=O)[C@H](C)NC(=O)[C@H](CC(C)C)NC(=O)[C@H](CCCNC(=N)N)NC(=O)[C@H](CCC(N)=O)NC(=O)[C@@H](NC(=O)[C@H](C)NC(=O)[C@@H]1CSSC[C@H](NC(=O)[C@@H](N)CCCCNC(=O)CC[C@H](NC(=O)CC[C@H](NC(=O)CCCCCCCCCCCCCCCCCCC(=O)O)C(=O)O)C(=O)O)C(=O)N[C@@H](CC(N)=O)C(=O)N[C@@H]([C@@H](C)O)C(=O)N[C@@H](C)C(=O)N[C@@H]([C@@H](C)O)C(=O)N1)[C@@H](C)O)C(=O)N1CCC[C@H]1C(=O)N[C@@H](CO)C(=O)N[C@@H](CO)C(=O)N[C@H](C(=O)N[C@@H](CC(N)=O)C(=O)N[C@H](C(=O)NCC(=O)N[C@@H](CO)C(=O)N[C@@H](CC(N)=O)C(=O)N[C@H](C(=O)N1CCC[C@H]1C(N)=O)[C@@H](C)O)C(C)C)[C@@H](C)O
notes: also called compound 13
- hAmylin-R funct. EC50 [1]: 0.213 nM
- Ratio hCT/hAmylin funct. [2]: 2.2
- hCTR funct. EC50 [2]: 0.47 nM

The remaining lines, values ahead:

- hAmylin-R funct. EC50 [3]: 0.217 nM
- Ratio hCT/hAmylin funct. (hCTR EC50 against hAmylin-R EC50) [4]: 11.6
- hCTR funct. EC50 [4]: 2.52 nM
B2: N^α1-[(4S)-4-carboxy-4-(19-carboxynonadecanoylamino)butanoyl]-[Arg17,Pro21,Pro27,Arg34]-h-amylin (peptide)
peptide: B3 peptide with E14N, S34R
modifications: C20 diacid-gGlu on the alpha amino group of the N-terminal residue; Cys2-Cys7 disulfide and C-terminal amide as in human amylin
notes: also called compound 39

- hAmylin-R funct. EC50 [3]: 0.164 nM
- Ratio hCT/hAmylin funct. (hCTR EC50 against hAmylin-R EC50) [4]: 16.4
- hCTR funct. EC50 [4]: 2.68 nM
B5: N^α1-[(4S)-4-carboxy-4-(19-carboxynonadecanoylamino)butanoyl]-[Arg17,Pro21,Pro27,His34]-h-amylin (peptide)
peptide: B3 peptide with E14N, S34H
modifications: C20 diacid-gGlu on the alpha amino group of the N-terminal residue; Cys2-Cys7 disulfide and C-terminal amide as in human amylin
notes: also called compound 40

- hAmylin-R funct. EC50 [1]: 0.182 nM
- Ratio hCT/hAmylin funct. [2]: 16.4
- hCTR funct. EC50 [2]: 3 nM
B6: N^ε1-[(4S)-4-carboxy-4-[[(4S)-4-carboxy-4-(19-carboxynonadecanoylamino)butanoyl]amino]butanoyl]-[Asp14,Arg17,Pro21,Pro27,Asp35]-h-amylin (peptide)
peptide: K([γGlu-γGlu-C20 diacid])CNTATCATQRLADFLRHSSPNFGAIPSSTNVGSDTY-NH2
modifications: disulfide 2-7; N-terminus assumed
SMILES: CC[C@H](C)[C@H](NC(=O)[C@H](C)NC(=O)CNC(=O)[C@H](Cc1ccccc1)NC(=O)[C@H](CC(N)=O)NC(=O)[C@@H]1CCCN1C(=O)[C@H](CO)NC(=O)[C@H](CO)NC(=O)[C@H](Cc1c[nH]cn1)NC(=O)[C@H](CCCNC(=N)N)NC(=O)[C@H](CC(C)C)NC(=O)[C@H](Cc1ccccc1)NC(=O)[C@H](CC(=O)O)NC(=O)[C@H](C)NC(=O)[C@H](CC(C)C)NC(=O)[C@H](CCCNC(=N)N)NC(=O)[C@H](CCC(N)=O)NC(=O)[C@@H](NC(=O)[C@H](C)NC(=O)[C@@H]1CSSC[C@H](NC(=O)[C@@H](N)CCCCNC(=O)CC[C@H](NC(=O)CC[C@H](NC(=O)CCCCCCCCCCCCCCCCCCC(=O)O)C(=O)O)C(=O)O)C(=O)N[C@@H](CC(N)=O)C(=O)N[C@@H]([C@@H](C)O)C(=O)N[C@@H](C)C(=O)N[C@@H]([C@@H](C)O)C(=O)N1)[C@@H](C)O)C(=O)N1CCC[C@H]1C(=O)N[C@@H](CO)C(=O)N[C@@H](CO)C(=O)N[C@H](C(=O)N[C@@H](CC(N)=O)C(=O)N[C@H](C(=O)NCC(=O)N[C@@H](CO)C(=O)N[C@@H](CC(=O)O)C(=O)N[C@H](C(=O)N[C@@H](Cc1ccc(O)cc1)C(N)=O)[C@@H](C)O)C(C)C)[C@@H](C)O
notes: also called compound 2

- hAmylin-R funct. EC50 [1]: 0.189 nM
- Ratio hCT/hAmylin funct. [2]: 6.8
- hCTR funct. EC50 [2]: 1.28 nM
B8: N{Alpha-1}-[(4S)-4-carboxy-4-(19-carboxynonadecanoylamino)butanoyl]-[Glu14,Arg17,Pro21,Pro27,Lys34]-h-amylin (peptide)
peptide: {C20 diacid-γGlu}-KCNTATCATQRLAEFLRHSSPNFGAIPSSTNVGKNTY-NH2
modifications: disulfide 2-7
SMILES: CC[C@H](C)[C@H](NC(=O)[C@H](C)NC(=O)CNC(=O)[C@H](Cc1ccccc1)NC(=O)[C@H](CC(N)=O)NC(=O)[C@@H]1CCCN1C(=O)[C@H](CO)NC(=O)[C@H](CO)NC(=O)[C@H](Cc1c[nH]cn1)NC(=O)[C@H](CCCNC(=N)N)NC(=O)[C@H](CC(C)C)NC(=O)[C@H](Cc1ccccc1)NC(=O)[C@H](CCC(=O)O)NC(=O)[C@H](C)NC(=O)[C@H](CC(C)C)NC(=O)[C@H](CCCNC(=N)N)NC(=O)[C@H](CCC(N)=O)NC(=O)[C@@H](NC(=O)[C@H](C)NC(=O)[C@@H]1CSSC[C@H](NC(=O)[C@H](CCCCN)NC(=O)CC[C@H](NC(=O)CCCCCCCCCCCCCCCCCCC(=O)O)C(=O)O)C(=O)N[C@@H](CC(N)=O)C(=O)N[C@@H]([C@@H](C)O)C(=O)N[C@@H](C)C(=O)N[C@@H]([C@@H](C)O)C(=O)N1)[C@@H](C)O)C(=O)N1CCC[C@H]1C(=O)N[C@@H](CO)C(=O)N[C@@H](CO)C(=O)N[C@H](C(=O)N[C@@H](CC(N)=O)C(=O)N[C@H](C(=O)NCC(=O)N[C@@H](CCCCN)C(=O)N[C@@H](CC(N)=O)C(=O)N[C@H](C(=O)N[C@@H](Cc1ccc(O)cc1)C(N)=O)[C@@H](C)O)C(C)C)[C@@H](C)O
notes: also called compound 36
